Drawing on US20150344570A1 (published 2015), this text covers Ho/Con_3a for 25 molecules.

B1: GpH7-B3 variant K334_01G/GpL16-k0 (antibody, human IgG1, kappa)
heavy: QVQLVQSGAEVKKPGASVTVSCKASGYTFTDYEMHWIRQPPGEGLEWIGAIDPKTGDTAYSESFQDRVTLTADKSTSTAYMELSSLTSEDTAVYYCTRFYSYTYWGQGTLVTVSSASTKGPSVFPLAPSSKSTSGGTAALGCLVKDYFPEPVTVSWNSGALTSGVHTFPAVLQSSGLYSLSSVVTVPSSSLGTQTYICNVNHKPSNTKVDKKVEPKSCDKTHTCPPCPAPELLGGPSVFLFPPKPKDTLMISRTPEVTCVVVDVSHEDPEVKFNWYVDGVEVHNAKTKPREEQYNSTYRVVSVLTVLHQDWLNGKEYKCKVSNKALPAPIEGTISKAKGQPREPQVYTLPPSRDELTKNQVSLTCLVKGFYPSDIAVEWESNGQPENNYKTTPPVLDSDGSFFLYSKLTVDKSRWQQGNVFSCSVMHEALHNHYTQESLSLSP
light: DIVMTQSPLSLPVTPGEPASISCQASESLVHSNRNTYLHWYLQKPGQSPQLLIYKVSNRFSGVPDRFSGSGSGTDFTLKISRVEAEDVGVYYCSQNTHVPPTFGQGTKVEIERTVAAPSVFIFPPSDEQLKSGTASVVCLLNNFYPREAKVQWKVDNALQSGNSQESVTEQDSKDSTYSLSSTLTLSKADYEKHKVYACEVTHQGLSSPVTKSFNRGEC
notes: also called Ho Ab K334_01G
B2: GpH7-B3 variant K334_15Y/GpL16-k0 (antibody, human IgG1, kappa)
heavy: not shown
light: B1 light
notes: also called Ho Ab K334_15Y
B3: GpH7-B3 variant Q295_02A/GpL16-k0 (antibody, human IgG1, kappa)
heavy: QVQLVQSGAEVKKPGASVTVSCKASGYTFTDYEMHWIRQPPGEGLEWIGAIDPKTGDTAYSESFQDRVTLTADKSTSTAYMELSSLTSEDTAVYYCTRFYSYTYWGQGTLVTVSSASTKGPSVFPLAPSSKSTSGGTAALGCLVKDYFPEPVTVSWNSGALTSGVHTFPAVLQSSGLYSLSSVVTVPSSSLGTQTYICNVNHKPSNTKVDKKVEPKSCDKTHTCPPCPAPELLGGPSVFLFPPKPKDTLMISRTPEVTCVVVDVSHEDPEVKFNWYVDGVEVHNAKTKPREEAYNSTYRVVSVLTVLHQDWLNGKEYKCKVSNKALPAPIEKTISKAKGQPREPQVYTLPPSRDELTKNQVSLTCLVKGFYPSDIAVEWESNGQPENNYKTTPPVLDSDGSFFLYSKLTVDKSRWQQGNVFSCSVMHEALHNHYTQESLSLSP
light: B1 light
notes: also called Ho Ab Q295_02A
B4: GpH7-B3 variant K334_10E/GpL16-k0 (antibody, human IgG1, kappa)
heavy: not shown
light: B1 light
notes: also called Ho Ab K334_10E
B5: GpH7-B3 variant K334_04F/GpL16-k0 (antibody, human IgG1, kappa)
heavy: not shown
light: B1 light
notes: also called Ho Ab K334_04F
B6: GpH7-B3 variant I336_13S/GpL16-k0 (antibody, human IgG1, kappa)
heavy: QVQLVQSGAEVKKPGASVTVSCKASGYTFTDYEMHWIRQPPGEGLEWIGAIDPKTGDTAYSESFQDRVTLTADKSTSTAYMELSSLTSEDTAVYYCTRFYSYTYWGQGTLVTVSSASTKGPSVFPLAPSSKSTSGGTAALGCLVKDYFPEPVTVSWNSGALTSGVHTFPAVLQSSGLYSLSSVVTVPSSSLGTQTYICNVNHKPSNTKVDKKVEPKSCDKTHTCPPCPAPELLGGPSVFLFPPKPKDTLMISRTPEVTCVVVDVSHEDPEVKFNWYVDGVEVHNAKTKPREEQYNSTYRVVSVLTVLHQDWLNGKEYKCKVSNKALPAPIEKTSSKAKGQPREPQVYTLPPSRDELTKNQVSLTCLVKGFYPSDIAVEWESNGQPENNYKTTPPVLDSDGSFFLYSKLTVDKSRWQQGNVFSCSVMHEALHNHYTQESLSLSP
light: B1 light
notes: also called Ho Ab I336_13S
B7: GpH7-B3 variant I336_10E/GpL16-k0 (antibody, human IgG1, kappa)
heavy: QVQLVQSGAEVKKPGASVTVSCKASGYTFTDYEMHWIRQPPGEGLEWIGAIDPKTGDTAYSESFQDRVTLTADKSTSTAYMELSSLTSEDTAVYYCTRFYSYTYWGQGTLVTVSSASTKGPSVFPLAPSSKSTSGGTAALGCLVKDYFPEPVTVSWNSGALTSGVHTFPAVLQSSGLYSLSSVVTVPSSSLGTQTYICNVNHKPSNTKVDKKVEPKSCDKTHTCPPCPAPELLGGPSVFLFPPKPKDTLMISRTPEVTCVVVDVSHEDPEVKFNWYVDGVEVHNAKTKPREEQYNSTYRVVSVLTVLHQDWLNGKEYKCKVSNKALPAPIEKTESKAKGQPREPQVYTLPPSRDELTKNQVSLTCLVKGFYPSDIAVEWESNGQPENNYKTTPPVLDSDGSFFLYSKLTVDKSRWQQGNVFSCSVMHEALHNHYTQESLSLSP
light: B1 light
notes: also called Ho Ab I336_10E
B8: GpH7-B3 variant I336_02A/GpL16-k0 (antibody, human IgG1, kappa)
heavy: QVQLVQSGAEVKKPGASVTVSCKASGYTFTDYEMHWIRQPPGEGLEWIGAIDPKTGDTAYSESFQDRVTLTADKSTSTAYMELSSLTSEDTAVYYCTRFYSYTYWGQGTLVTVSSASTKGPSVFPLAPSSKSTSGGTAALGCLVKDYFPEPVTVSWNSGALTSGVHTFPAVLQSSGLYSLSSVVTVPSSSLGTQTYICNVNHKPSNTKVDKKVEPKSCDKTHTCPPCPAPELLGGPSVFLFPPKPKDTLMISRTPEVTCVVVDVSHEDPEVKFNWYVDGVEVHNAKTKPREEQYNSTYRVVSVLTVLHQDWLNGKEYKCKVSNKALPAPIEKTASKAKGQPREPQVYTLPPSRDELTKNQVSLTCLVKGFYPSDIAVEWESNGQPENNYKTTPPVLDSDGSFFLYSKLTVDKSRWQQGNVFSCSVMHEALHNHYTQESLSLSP
light: B1 light
notes: also called Ho Ab I336_02A
B9: GpH7-B3 variant K334_08L/GpL16-k0 (antibody, human IgG1, kappa)
heavy: not shown
light: B1 light
notes: also called Ho Ab K334_08L
B10: GpH7-B3 variant K334_19Q/GpL16-k0 (antibody, human IgG1, kappa)
heavy: not shown
light: B1 light
notes: also called Ho Ab K334_19Q
B11: GpH7-B3 variant K326_07I/GpL16-k0 (antibody, human IgG1, kappa)
heavy: not shown
light: B1 light
notes: also called Ho Ab K326_07I
B12: GpH7-B3 variant K326_10E/GpL16-k0 (antibody, human IgG1, kappa)
heavy: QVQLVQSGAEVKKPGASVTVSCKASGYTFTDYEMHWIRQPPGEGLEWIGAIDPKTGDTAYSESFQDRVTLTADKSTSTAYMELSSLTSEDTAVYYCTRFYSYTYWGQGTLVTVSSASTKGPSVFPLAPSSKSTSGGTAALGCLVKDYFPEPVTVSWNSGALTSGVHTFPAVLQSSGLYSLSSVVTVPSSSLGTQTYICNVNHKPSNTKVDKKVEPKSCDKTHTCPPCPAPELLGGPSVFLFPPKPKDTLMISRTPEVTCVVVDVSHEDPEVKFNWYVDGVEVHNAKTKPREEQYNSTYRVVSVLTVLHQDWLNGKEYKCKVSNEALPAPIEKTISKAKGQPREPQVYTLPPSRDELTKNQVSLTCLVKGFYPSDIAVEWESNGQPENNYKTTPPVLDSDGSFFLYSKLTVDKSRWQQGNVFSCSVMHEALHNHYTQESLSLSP
light: B1 light
notes: also called Ho Ab K326_10E
B13: GpH7-B3 variant K326_19Q/GpL16-k0 (antibody, human IgG1, kappa)
heavy: not shown
light: B1 light
notes: also called Ho Ab K326_19Q
B14: GpH7-B3 variant I336_09D/GpL16-k0 (antibody, human IgG1, kappa)
heavy: not shown
light: B1 light
notes: also called Ho Ab I336_09D
B15: GpH7-B3 variant I332_02A/GpL16-k0 (antibody, human IgG1, kappa)
heavy: not shown
light: B1 light
notes: also called Ho Ab I332_02A
B16: GpH7-B3 variant K326_06M/GpL16-k0 (antibody, human IgG1, kappa)
heavy: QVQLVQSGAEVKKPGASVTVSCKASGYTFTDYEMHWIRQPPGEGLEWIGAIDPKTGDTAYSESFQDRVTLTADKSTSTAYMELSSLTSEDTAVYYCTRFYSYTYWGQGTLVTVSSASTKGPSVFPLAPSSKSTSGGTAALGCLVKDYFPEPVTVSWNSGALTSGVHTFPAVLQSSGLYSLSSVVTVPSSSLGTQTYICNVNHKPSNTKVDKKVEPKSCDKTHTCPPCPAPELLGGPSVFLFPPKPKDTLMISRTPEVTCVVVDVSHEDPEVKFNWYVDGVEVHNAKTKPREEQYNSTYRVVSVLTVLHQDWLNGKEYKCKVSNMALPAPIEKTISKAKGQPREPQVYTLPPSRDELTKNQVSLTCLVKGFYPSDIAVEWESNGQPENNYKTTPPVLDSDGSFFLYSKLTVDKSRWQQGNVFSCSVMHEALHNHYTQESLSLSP
light: B1 light
notes: also called Ho Ab K326_06M
B17: GpH7-B3 variant K334_03V/GpL16-k0 (antibody, human IgG1, kappa)
heavy: not shown
light: B1 light
notes: also called Ho Ab K334_03V
B18: GpH7-B3 variant H268_10E/GpL16-k0 (antibody, human IgG1, kappa)
heavy: not shown
light: B1 light
notes: also called Ho Ab H268_10E
B19: GpH7-B3 variant K334_14T/GpL16-k0 (antibody, human IgG1, kappa)
heavy: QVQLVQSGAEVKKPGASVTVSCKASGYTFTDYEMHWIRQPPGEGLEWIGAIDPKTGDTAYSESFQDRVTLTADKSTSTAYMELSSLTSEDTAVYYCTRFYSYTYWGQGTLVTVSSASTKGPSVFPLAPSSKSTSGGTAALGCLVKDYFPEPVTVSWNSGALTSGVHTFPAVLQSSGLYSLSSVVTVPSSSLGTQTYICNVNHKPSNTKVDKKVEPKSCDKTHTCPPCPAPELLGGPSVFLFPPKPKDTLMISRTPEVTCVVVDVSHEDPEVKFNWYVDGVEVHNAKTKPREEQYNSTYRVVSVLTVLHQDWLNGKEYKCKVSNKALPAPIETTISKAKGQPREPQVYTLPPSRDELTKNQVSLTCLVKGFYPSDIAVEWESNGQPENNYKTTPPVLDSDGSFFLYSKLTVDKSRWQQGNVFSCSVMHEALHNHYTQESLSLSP
light: B1 light
notes: also called Ho Ab K334_14T
B20: GpH7-B3 variant K326_04F/GpL16-k0 (antibody, human IgG1, kappa)
heavy: not shown
light: B1 light
notes: also called Ho Ab K326_04F
B21: GpH7-B3 variant I332_15Y/GpL16-k0 (antibody, human IgG1, kappa)
heavy: not shown
light: B1 light
notes: also called Ho Ab I332_15Y
B22: GpH7-B3 variant I336_03V/GpL16-k0 (antibody, human IgG1, kappa)
heavy: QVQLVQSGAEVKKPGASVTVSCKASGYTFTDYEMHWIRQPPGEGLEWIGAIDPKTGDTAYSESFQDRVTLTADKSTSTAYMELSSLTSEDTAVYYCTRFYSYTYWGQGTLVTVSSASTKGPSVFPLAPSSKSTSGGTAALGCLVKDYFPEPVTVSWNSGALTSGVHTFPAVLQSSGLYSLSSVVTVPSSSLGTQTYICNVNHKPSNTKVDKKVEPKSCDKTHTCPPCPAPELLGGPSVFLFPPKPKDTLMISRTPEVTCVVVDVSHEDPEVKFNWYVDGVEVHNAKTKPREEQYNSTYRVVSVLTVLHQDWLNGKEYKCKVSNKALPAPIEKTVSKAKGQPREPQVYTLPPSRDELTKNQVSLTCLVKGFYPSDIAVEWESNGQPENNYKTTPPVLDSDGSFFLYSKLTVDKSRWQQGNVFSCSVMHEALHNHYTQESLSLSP
light: B1 light
notes: also called Ho Ab I336_03V
B23: GpH7-B3 variant I332_13S/GpL16-k0 (antibody, human IgG1, kappa)
heavy: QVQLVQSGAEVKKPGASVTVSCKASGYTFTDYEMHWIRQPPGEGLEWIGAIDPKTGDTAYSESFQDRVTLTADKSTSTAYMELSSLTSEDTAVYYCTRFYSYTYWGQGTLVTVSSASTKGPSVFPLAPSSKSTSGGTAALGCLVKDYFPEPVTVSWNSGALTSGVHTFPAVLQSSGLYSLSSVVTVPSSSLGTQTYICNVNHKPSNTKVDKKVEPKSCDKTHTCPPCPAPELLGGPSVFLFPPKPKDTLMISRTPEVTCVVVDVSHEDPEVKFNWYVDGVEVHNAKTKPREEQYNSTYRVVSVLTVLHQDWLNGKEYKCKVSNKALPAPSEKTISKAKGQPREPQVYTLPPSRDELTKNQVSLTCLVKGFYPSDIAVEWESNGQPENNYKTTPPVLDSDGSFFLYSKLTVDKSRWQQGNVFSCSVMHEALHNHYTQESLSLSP
light: B1 light
notes: also called Ho Ab I332_13S
B24: GpH7-B3 variant A330_08L/GpL16-k0 (antibody, human IgG1, kappa)
heavy: not shown
light: B1 light
notes: also called Ho Ab A330_08L
B25: GpH7-B3 variant K334_09D/GpL16-k0 (antibody, human IgG1, kappa)
heavy: not shown
light: B1 light
notes: also called Ho Ab K334_09D

The target in this test is T1, FcγRIIIa extracellular domain with C-terminal His tag (human, UniProt P08637 17-208).
T1 construct: extracellular domain; also called FcgRIIIa; 3a; not shown: His tag attached to the C terminus
T1 sequence (P08637 17-208): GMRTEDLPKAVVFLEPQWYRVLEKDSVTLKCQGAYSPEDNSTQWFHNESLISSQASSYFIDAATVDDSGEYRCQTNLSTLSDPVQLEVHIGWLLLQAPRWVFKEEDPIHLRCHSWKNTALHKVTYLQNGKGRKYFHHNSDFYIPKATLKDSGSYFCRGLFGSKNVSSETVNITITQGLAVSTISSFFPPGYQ
Nature of the test: SPR Biacore, captured antibody, FcγR analyte, relative binding. On the procedure: Analysis of interaction between objective antibody and the FcγR was carried out using Biacore T100 (GE Healthcare). HBS-EP+ (GE Healthcare) was used as the running buffer, and the measurement temperature was set to 25° C. Chips produced by immobilizing the antigen peptide by the amine coupling method to a Series S Sencor Chip CM5 (GE Healthcare), or alternatively, chips produced by allowing preliminarily biotinylated antigen peptides to interact with and immobilize onto a Series S Sensor Chip SA (certified) (GE Healthcare) were used. Antibodies of interest were captured onto an antigen peptide-immobilized chip, and allowed to interact to each FcγR diluted with running buffer. To regenerate and repeatedly use the chip, the antibodies captured on the chip were washed off by reacting 10 mM glycine-HCl, pH 1.5.
Take B1: the Ho/Con_3a is 104 % of HoCon Ab GpH7-B3/GpL16-k0 (=100). The value for B2 was 181 % of HoCon Ab GpH7-B3/GpL16-k0 (=100); that for B3 was 108 % of HoCon Ab GpH7-B3/GpL16-k0 (=100); that for B4 was 206 % of HoCon Ab GpH7-B3/GpL16-k0 (=100).

B5: the Ho/Con_3a is 168 % of HoCon Ab GpH7-B3/GpL16-k0 (=100). For the molecule B6, the Ho/Con_3a was 119 % of HoCon Ab GpH7-B3/GpL16-k0 (=100).

In the case of B7, the Ho/Con_3a was 130 % of HoCon Ab GpH7-B3/GpL16-k0 (=100).

With B8, the Ho/Con_3a was 104 % of HoCon Ab GpH7-B3/GpL16-k0 (=100). The result for B9 reads 178 % of HoCon Ab GpH7-B3/GpL16-k0 (=100). With B10, the Ho/Con_3a was 150 % of HoCon Ab GpH7-B3/GpL16-k0 (=100). The result for B11 reads 134 % of HoCon Ab GpH7-B3/GpL16-k0 (=100); that for B12, 157 % of HoCon Ab GpH7-B3/GpL16-k0 (=100); that for B13, 118 % of HoCon Ab GpH7-B3/GpL16-k0 (=100).

For B14, the Ho/Con_3a is 111 % of HoCon Ab GpH7-B3/GpL16-k0 (=100). For the molecule B15, the Ho/Con_3a is 114 % of HoCon Ab GpH7-B3/GpL16-k0 (=100). Regarding B16, the Ho/Con_3a is 129 % of HoCon Ab GpH7-B3/GpL16-k0 (=100).

With B17, the Ho/Con_3a was 170 % of HoCon Ab GpH7-B3/GpL16-k0 (=100). The value for B18 was 206 % of HoCon Ab GpH7-B3/GpL16-k0 (=100); that for B19 was 163 % of HoCon Ab GpH7-B3/GpL16-k0 (=100). Take B20: the Ho/Con_3a is 103 % of HoCon Ab GpH7-B3/GpL16-k0 (=100). With B21, the Ho/Con_3a was 106 % of HoCon Ab GpH7-B3/GpL16-k0 (=100).

Turning to B22, the Ho/Con_3a is 110 % of HoCon Ab GpH7-B3/GpL16-k0 (=100). The result for B23 reads 112 % of HoCon Ab GpH7-B3/GpL16-k0 (=100); that for B24, 138 % of HoCon Ab GpH7-B3/GpL16-k0 (=100). For the molecule B25, the Ho/Con_3a is 150 % of HoCon Ab GpH7-B3/GpL16-k0 (=100).
